Laboratory results reported in patent publication US20170342140A1.

Columns and labels:
[1] = target: glycopeptide B (SEQ ID NO: 21), BSA-PEG4 conjugate; experiment: antigen solid-phase ELISA, AAL lectin as positive control
[2] = target: non-fucosylated glycopeptide B (SEQ ID NO: 22), BSA-PEG4 conjugate; experiment: antigen solid-phase ELISA, WGA lectin as positive control

Substance | OD450 [1] [OD450] | OD450 [2] [OD450]
AAL lectin (from UniProt P18891 2-313) | 0.335 | –
WGA lectin | – | 3
